The values below come from patent US20120190039A1 (MOUNT SINAI HOSPITAL, published 2012).

Assay [1] concerns the target B-RAF_L487R (human B-RAF kinase domain, residues 448-723) (human) (UniProt P15056). As to the kind of experiment: analytical ultracentrifugation, equilibrium sedimentation, self-association.
The target of assay [2] is B-RAF_R481H (human B-RAF kinase domain, residues 448-723) (human) (UniProt P15056). The description is as above.
In assay [3] the target is B-RAF_L487R/E558K (human B-RAF kinase domain, residues 448-723) (human) (UniProt P15056). The description is as above.
In assay [4] the target is MEK (overexpressed in S2 cells) (UniProt Q24324 1-396). As to the kind of experiment: co-immunoprecipitation from S2 cells. As to the method: S2 cells were maintained in serum-free insect cell medium (Sigma) at 27° C. Cells were seeded at a density of 1.75×10⁶ cells/ml 24 h prior to transfection. Between 10 to 300 ng (or up to 900 ng for KSR_R732H) of DNA was transfected per construct using Effectene (Qiagen). dsRNAs were produced and used in RNAi experiments as described (Roy, F., Laberge, G., Douziech, M., Ferland-McCollough, D. & Therrien, M. KSR is a scaffold required for activation of the ERK/MAPK module. Genes Dev 16, 427-38 (2002)). Protein expression was induced by adding CuSO₄ (0.7 mM) 36 h before harvesting the cells. For FRB/FKBP-mediated dimer formation, rapamycin (Sigma) was added ([…]) to the medium 2 h prior to harvesting the cells. Lysates, immunoprecipitations, western blot procedures and antibodies were essentially as previously described (Douziech, M., Sahmi, M., Laberge, G. & Therrien, M. A, KSR/CNK complex mediated by HYP, a novel SAM domain-containing protein, regulates RAS-dependent RAF activation in Drosophila, Genes Dev, 20, 807-19 (2006)).
MEK (overexpressed in S2 cells), sequence (Q24324 whole entry): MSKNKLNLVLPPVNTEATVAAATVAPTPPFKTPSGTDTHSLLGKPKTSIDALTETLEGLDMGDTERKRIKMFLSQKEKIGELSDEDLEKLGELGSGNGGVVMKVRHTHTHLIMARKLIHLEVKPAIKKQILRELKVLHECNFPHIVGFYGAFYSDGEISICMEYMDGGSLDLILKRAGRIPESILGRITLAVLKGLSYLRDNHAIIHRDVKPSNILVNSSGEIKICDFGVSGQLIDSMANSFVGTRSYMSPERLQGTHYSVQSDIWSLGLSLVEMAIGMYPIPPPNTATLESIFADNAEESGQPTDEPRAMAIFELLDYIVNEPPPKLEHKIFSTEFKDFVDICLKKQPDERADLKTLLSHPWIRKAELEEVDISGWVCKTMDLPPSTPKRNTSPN

Take “B-RAF_L487R (human B-RAF kinase domain, residues 448-723) (from UniProt P15056 448-723) (enzyme)”: in assay [1], the average molecular weight (global self association fit) is 48600 Da and the ratio of the observed average MW to the theoretical MW of the monomer is 1.5.
For the molecule “B-RAF_R481H (human B-RAF kinase domain, residues 448-723) (from UniProt P15056 448-723) (enzyme)”, in assay [2], the average molecular weight (global self association fit) came out at 34500 Da and the ratio of the observed average MW to the theoretical MW of the monomer worked out at 1.1.
Regarding “B-RAF_L487R/E558K (human B-RAF kinase domain, residues 448-723) (from UniProt P15056 448-723) (enzyme)”, in assay [3], the average molecular weight (global self association fit) worked out at 55500 Da and the ratio of the observed average MW to the theoretical MW of the monomer turned out to be 1.8.

B1: KSR-RAF chimera-A (KSR 1-665 fused to RAF 417-739, K455M) (other)
chain: MSSNNNAPASAPDTGSTNANDPISGSLSVDSNLVIIQDMIDLSANHLEGLRTQCAISSTLTQQEIRCLESKLVRYFSELLLAKMRLNERIPANGLVPHTTGNELRQWLRVVGLSQGTLTACLARLTTLEQSLRLSDEEIRQLLADSPSQREEEELRRLTRAMQNLRKCMESLESGTAASNNDPEQWHWDSWDRPTHIHRGSVGNIGLGNNSTASPRTHHRQHGVKGKNSALANSTNFKSGRQSPSATEELNSTQGSQLTLTLTPSPPNSPFTPSSGLSSSLNGTPQRSRGTPPPARKHQTLLSQSHVQVDGEQLARNRLPTDPSPDSHSSTSSDIFVDPNTNASSGGSSSNVLMVPCSPGVGHVGMGHAIKHRFTKALGFMATCTLCQKQVFHRWMKCTDCKYICHKSCAPHVPPSCGLPREYVDEFRHIKEQGGYASLPHVHGAAKGSPLVKKSTLGKPLHQQHGDSSSPSSSCTSSTPSSPALFQQRERELDQAGSSSSANLLPTPSLGKHQPSQFNFPNVTVTSSGGSGGVSLISNEPVPEQFPTAPATANGGLDSLVSSSNGHMSSLIGSQTSNASTAATLTGSLVNSTTTTSTCSFFPRKLSTAGVDKRTPFTSEYTDTHKSNDSDKTVSLSGSASTDSDRTPVRVDSTEDGDSGQWRQNSSEENWNILAEEILIGPRIGSGSFGTVYRAHWHGPVAVMTLNVKTPSPAQLQAFKNEVAMLKKTRHCNILLFMGCVSKPSLAIVTQWCEGSSLYKHVHVSETKFKLNTLIDIGRQVAQGMDYLHAKNIIHRDLKSNNIFLHEDLSVKIGDFGLATAKTRWSGEKQANQPTGSILWMAPEVIRMQELNPYSFQSDVYAFGIVMYELLAECLPYGHISNKDQILFMVGRGLLRPDMSQVRSDAPQALKRLAEDCIKYTPKDRPLFRPLLNMLENMLRTLPKIHRSASEPNLTQSQLQNDEFLYLPSPKTPVNFNNFQFFGSAGNI
Turning to B1, in assay [4], the binding result is “no binding”.
